Common to all, as to experiment: IEDB peptide-MHC binding, purified MHC/competitive/radioactivity; filed as Kd, often an IC50 or EC50 that approximates it; ≥ and ≤ were set here for values at or beyond the usual limits of such assays
Experiment [1] has as its target HLA-A*02:02.
Experiment [2] addresses HLA-A*02:03.
For experiment [3], the target named is HLA-A*02:06.
Setting [4] is: source organism: Vaccinia virus WR.
[5] abbreviates: source organism: Mammarenavirus guanaritoense.
Setting [6] is: source organism: SARS coronavirus Tor2.
Setting [7] is: source organism: Mammarenavirus whitewaterense.
Setting [8] is: source organism: Mammarenavirus choriomeningitidis.

Some results are limits rather than exact numbers.

Regarding AAAKTPVIV, the Kd was 1900 nM in experiment [1] (setting [4]), 1420 nM in experiment [2] (setting [4]) and not below 66800 nM in experiment [3] (setting [4]).

With ALEQYGIENT, the dissociation constant Kd in experiment [1] (setting [4]) was determined as 3150 nM; in experiment [2] (setting [4]), 2160 nM; in experiment [3] (setting [4]), 1270 nM.

As to CIVAAVIIMA, the Kd in experiment [1] (setting [4]) worked out at 1130 nM; in experiment [2] (setting [4]) it was 619 nM; in experiment [3] (setting [4]), 733 nM.

On to CNYTRFWYI, for which the Kd turned out to be 10100 nM in experiment [1] (setting [5]), 5310 nM in experiment [2] (setting [5]) and 257 nM in experiment [3] (setting [5]).

Turning to CVRNLEELTT, the Kd in experiment [1] (setting [4]) is 12600 nM; in experiment [2] (setting [4]), 15200 nM; in experiment [3] (setting [4]), not below 42800 nM.

Turning to DISVNASKTI, the results for the Kd in experiment [1] (setting [4]), in experiment [2] (setting [4]) and in experiment [3] (setting [4]) were not below 46800 nM, 11900 nM and not below 69800 nM, respectively.

DIVSDSKKIM: the Kd was not below 25100 nM in experiment [1] (setting [4]), not below 57200 nM in experiment [2] (setting [4]) and not below 69800 nM in experiment [3] (setting [4]).

With DTGKKELALT, the Kd in experiment [1] (setting [4]) is 1040 nM; in experiment [2] (setting [4]) it was 262 nM; in experiment [3] (setting [4]), 6800 nM.

For DTLVKSGLT, the Kd in experiment [1] (setting [4]) is 1950 nM; in experiment [2] (setting [4]) it was 2880 nM; in experiment [3] (setting [4]), not below 52700 nM.

On to DVKVLAARL, for which the figures for the equilibrium dissociation constant (Kd) in experiment [1] (setting [4]), in experiment [2] (setting [4]) and in experiment [3] (setting [4]) were 6230 nM, 10700 nM and 9990 nM, respectively.

In the case of EAFETQSGA, the Kd in experiment [1] (setting [4]) was not below 77800 nM; in experiment [2] (setting [4]), not below 78100 nM; in experiment [3] (setting [4]) it was not below 49700 nM.

EIITGNKVKT: the figures for the Kd in experiment [1] (setting [4]), in experiment [2] (setting [4]) and in experiment [3] (setting [4]) were not below 70000 nM, not below 70400 nM and not below 69800 nM, respectively.

Take EVRYIDITNI: the Kd is 12900 nM in experiment [1] (setting [4]), 5810 nM in experiment [2] (setting [4]) and 4340 nM in experiment [3] (setting [4]).

FLPSDFFPSV: the Kd in experiment [1] (source organism: Hepatitis B virus) was determined as 2 nM.

Regarding FLWLLWPVTL, the Kd in experiment [1] (setting [6]) is 2.67 nM; in experiment [2] (setting [6]), 14 nM; in experiment [3] (setting [6]), 28.4 nM.

For FVKENERVNV, the values for the Kd in experiment [1] (setting [4]), in experiment [2] (setting [4]) and in experiment [3] (setting [4]) were 186 nM, 11.8 nM and 683 nM, respectively.

On to FVMCLEAKT, for which the Kd in experiment [1] (setting [4]) stood at 609 nM; in experiment [2] (setting [4]) it was 1940 nM; in experiment [3] (setting [4]), 979 nM.

For GLFTSLGKAV, the dissociation constant (Kd) in experiment [2] (source organism: Dengue virus 4 Dominica/814669/1981) was 18.7 nM.

For GLLQFIVFL, the values for the Kd in experiment [1] (setting [7]), in experiment [2] (setting [7]) and in experiment [3] (setting [7]) were 0.6 nM, 7710 nM and 12.4 nM, respectively.

As to GLYIPGTSVI, the Kd in experiment [1] (setting [4]) worked out at 92.1 nM; in experiment [2] (setting [4]), 0.189 nM; in experiment [3] (setting [4]) it was 3620 nM.

As for GMSKEPGVV, in experiment [2] (source organism: Dengue virus 3 Martinique/1243/1999), the Kd is 41.7 nM.

GTGILFMEM: the Kd in experiment [1] (setting [4]) turned out to be 2200 nM; in experiment [2] (setting [4]) it was 7730 nM; in experiment [3] (setting [4]), 9980 nM.

Turning to GVCYYLLMHL, the Kd stood at 95.8 nM in experiment [1] (setting [4]), 63.8 nM in experiment [2] (setting [4]) and 128 nM in experiment [3] (setting [4]).

Regarding GVLHTKFWI, the results for the equilibrium dissociation constant (Kd) in experiment [1] (setting [4]), in experiment [2] (setting [4]) and in experiment [3] (setting [4]) were 16600 nM, 12300 nM and 417 nM, respectively.

For the sequence IAVITETIPI, the Kd is 515 nM in experiment [1] (setting [4]), 31.9 nM in experiment [2] (setting [4]) and 1.04 nM in experiment [3] (setting [4]).

Take IIPFIAYFVL: the Kd was 715 nM in experiment [1] (setting [4]), 4730 nM in experiment [2] (setting [4]) and 852 nM in experiment [3] (setting [4]).

Turning to ILFLTLIVFT, the dissociation constant (Kd) in experiment [1] (setting [6]) was found to be 23.6 nM; in experiment [2] (setting [6]), 1070 nM; in experiment [3] (setting [6]), 703 nM.

Regarding ITETIPIGM, the figures for the Kd in experiment [1] (setting [4]), in experiment [2] (setting [4]) and in experiment [3] (setting [4]) were 12400 nM, not below 42800 nM and 7690 nM, respectively.

For KINEMVDELV, the dissociation constant Kd in experiment [1] (setting [4]) worked out at 587 nM; in experiment [2] (setting [4]), 492 nM; in experiment [3] (setting [4]), 3050 nM.

With KTIAVSVYGA, the Kd in experiment [1] (setting [4]) is 366 nM; in experiment [2] (setting [4]), 224 nM; in experiment [3] (setting [4]) it was 427 nM.

With LIVAALVFL, the Kd was found to be 9.38 nM in experiment [1] (setting [6]), 136 nM in experiment [2] (setting [6]) and 10.5 nM in experiment [3] (setting [6]).

For the sequence LIYRQLTSNV, the figures for the Kd in experiment [1] (setting [4]), in experiment [2] (setting [4]) and in experiment [3] (setting [4]) were 78.7 nM, 7.49 nM and 169 nM, respectively.

Turning to LLTIGLSLV, the Kd in experiment [2] (source organism: Dengue virus 1 Brazil/97-11/1997) was 4.99 nM.

Consider LLVAAGMEA, for which the Kd in experiment [1] (setting [6]) was 17.4 nM; in experiment [2] (setting [6]), 16.6 nM; in experiment [3] (setting [6]), 117 nM.

For the sequence LMGHFSWWTA, the values for the Kd in experiment [1] (setting [6]), in experiment [2] (setting [6]) and in experiment [3] (setting [6]) were 19.2 nM, 135 nM and 97.4 nM, respectively.

With LNQTVYSLV, the Kd in experiment [1] (setting [8]) stood at 3330 nM; in experiment [2] (setting [8]), 1500 nM; in experiment [3] (setting [8]) it was 5100 nM.

On to LTQVKELGIA, for which the figures for the Kd in experiment [1] (setting [4]), in experiment [2] (setting [4]) and in experiment [3] (setting [4]) were 11800 nM, 150 nM and 18.1 nM, respectively.

A word on the Kd: it is the equilibrium constant for the complex coming apart.

The values above are taken from the Immune Epitope Database (IEDB).
